Assays:
NM23-H2 wild type [1] = target: T1, NM23-H2 wild type (UniProt P22392 1-152); test: EMSA
NM23-H2 H118C = NM23-H2 H118C (UniProt P22392 1-152, H118C); test: EMSA with FRET detection
NM23-H2 K12A = NM23-H2 K12A (UniProt P22392 1-152, K12A); test: EMSA with FRET detection
NM23-H2 wild type [2] = target: T1, NM23-H2 wild type; test: EMSA with FRET detection

T1 sequence (P22392 whole entry): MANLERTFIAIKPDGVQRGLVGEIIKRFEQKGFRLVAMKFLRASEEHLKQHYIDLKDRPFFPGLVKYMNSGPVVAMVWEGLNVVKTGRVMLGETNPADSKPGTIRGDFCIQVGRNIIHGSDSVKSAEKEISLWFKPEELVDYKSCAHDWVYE
Sequence of NM23-H2 K12A (P22392 whole entry K12A): as the sequence (P22392 whole entry) above, with K12A counted along it
Sequence of NM23-H2 H118C (P22392 whole entry H118C): as the sequence (P22392 whole entry) above, with H118C counted along it

| Binder | binding result (NM23-H2 wild type [1]) | binding result (NM23-H2 H118C) | binding result (NM23-H2 K12A) | binding result (NM23-H2 wild type [2]) |
| --- | --- | --- | --- | --- |
| TGGGGAGGGTGGGGAGGGTGGGGAAGG (structured_DNA) [c-MYC NHE G4 27-mer] | binds | – | – | – |
| TGGGGAGGGTGGGGAGGGTGGGGAAGG (structured_DNA) [FG27T] | – | binds | binds | binds |

— paper PMC2615625
